22 molecules from patent US20230416365A1 (Hoffmann-La Roche, published 2023) can be followed below.

Test [1] concerns the target T1, N(A2B2)A-avi-His (biotinylated at the avi tag).
T1 construct: also called biotinylated N(A2B2)A-avi-His
T1 chain: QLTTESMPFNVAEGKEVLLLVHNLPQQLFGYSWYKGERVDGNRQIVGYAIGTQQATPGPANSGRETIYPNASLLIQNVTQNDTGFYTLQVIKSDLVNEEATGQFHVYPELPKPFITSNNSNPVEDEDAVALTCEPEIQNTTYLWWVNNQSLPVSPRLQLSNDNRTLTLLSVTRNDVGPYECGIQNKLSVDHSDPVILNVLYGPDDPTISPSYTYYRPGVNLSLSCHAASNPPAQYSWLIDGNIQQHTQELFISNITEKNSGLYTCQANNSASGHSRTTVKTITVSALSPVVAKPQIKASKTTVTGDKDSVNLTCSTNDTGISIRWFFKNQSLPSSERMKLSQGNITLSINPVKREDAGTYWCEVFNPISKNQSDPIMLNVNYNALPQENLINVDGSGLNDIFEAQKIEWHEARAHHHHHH
The experiment in a line: SPR off-rate, ProteOn, antigen on NLC chip, Fab in bacterial supernatant.

Test [2] concerns the target T1, N(A2B2)A-avi-His. The experiment in a line: SPR, ProteOn, antigen on NLC chip, purified Fab as analyte. For orientation: Surface plasmon resonance follows binding to a sensor surface in real time, without labels.
For a further test, the target named is T2, Hu N(A2-B2)A-avi-His (human, biotinylated at the avi tag (Example 2.2)).
T2 construct: also called hu N(A2-B2)A-avi-His B; CEACAM5-based antigen
T2 chain: T1 chain
The experiment in a line: SPR, Biacore T200, antigen amine-coupled on CM5, Fab as analyte.

Test [3] has as its target T3, human CD28 on CHO cells (parental cell line CHO-k1 ATCC #CCL-61, modified to stably overexpress human CD28) (human, UniProt P10747 19-220).
T3 construct: also called hu CD28; CHO-hCD28
The experiment in a line: flow cytometry on CHO cells stably expressing human CD28, monovalent one-armed IgG from supernatant, MFI (PE). (In general: A flow cytometer gives signals particle by particle.)

Test [4] concerns the target T3, human CD28 on CHO cells (parental cell …). The test is described as above. This is another data set of the same source.
For test [5], the target named is T4, biotinylated huCD28-Fc (dimeric CD28-Fc construct with a monovalent biotinylated avi-tag) (human, UniProt P10747 19-152, biotinylated at the C-terminal avi tag).
T4 construct: not shown: hum IgG1 Fc fragment with hole and PG-LALA mutations; hum IgG1 Fc fragment with knob and PG-LALA mutations
The experiment in a line: SPR, ProteOn XPR36, huCD28-Fc immobilised, bispecific as analyte.

Substitutions are numbered along the chain they refer to. Like-named read-outs stand apart in the source and are kept apart here.

B1: A5H1EL1D Fab (phage display format, parental clone) (Fab, V domains shown)
VH: EVQLLESGGGLVQPGGSLRLSCAASGFTFTDYYMNWVRQAPGKGLEWLGFIGNKANAYTTEYSASVKGRFTISRDKSKNTLYLQMNSLRAEDTATYYCTRDRGLRFYFDYWGQGTTVTVSS
VL: EIVLTQSPATLSLSPGERATLSCRASSSVTYIHWYQQKPGQAPRSWIYATSNLASGIPARFSGSGSGTDFTLTISSLEPEDFAVYYCQHWSSKPPTFGQGTKLEIK
notes: Fab from E. coli (bacterial supernatant or IMAC-purified), Flag tag
For the molecule B1, the off-rate (koff) with N(A2B2)A-avi-His [1] was found to be 0.00031 s⁻¹. In the test with N(A2B2)A-avi-His [2], this molecule yielded a Kd of 2.3 nM, a koff of 0.000248 s⁻¹ and a kon of 108000 M⁻¹ s⁻¹.

B2: Fab derived from P1AE2167 (Fab, V domains shown)
VH: B1 VH with A57G
VL: B1 VL
notes: Fab; also called P1AE4138
For B2, binding with Hu N(A2-B2)A-avi-His was put at a Kd of 1.47 nM.

B3: Fab derived from P1AE2176 (Fab, V domains shown)
VH: B1 VH with L48V, A57G, K76N, T95V
VL: B1 VL with Q41S, A42S, R44K
notes: Fab; also called P1AE4139
Turning to B3, in the test with Hu N(A2-B2)A-avi-His, the Kd came to 7.58 nM.

B4: Fab derived from P1AE2165 (Fab, V domains shown)
VH: B1 VH with A57G
VL: B1 VL with E1Q, I2T, S45L, W46L
notes: Fab; also called P1AE4136
In turn, B4 registered a Kd in the test with Hu N(A2-B2)A-avi-His of 1.25 nM.

B5: Fab derived from P1AE2179 (Fab, V domains shown)
VH: B1 VH with L48V, A57G, T95V, T99A
VL: B1 VL with E1Q, I2T, Q41S, A42S, R44K, F70Y
notes: Fab; also called P1AE4141
As to B5, binding with Hu N(A2-B2)A-avi-His was characterised by a dissociation constant (Kd) of 1.83 nM.

B6: Fab derived from P1AE2181 (Fab, V domains shown)
VH: B1 VH with L48V, A57G, T95V, T99A
VL: B1 VL with Q41S, A42S, R44K
notes: Fab; also called P1AE4142
Turning to B6, binding in the test with Hu N(A2-B2)A-avi-His was characterised by a dissociation constant (Kd) of 2.64 nM.

B7: Fab derived from P1AE2182 (Fab, V domains shown)
VH: B1 VH with L48V, A57G, T95V, T99A
VL: B1 VL
notes: Fab; also called P1AE4143
Molecule B7 gave a Kd in the test with Hu N(A2-B2)A-avi-His of 2.92 nM.

B8: Fab derived from P1AE2177 (Fab, V domains shown)
VH: B1 VH with L48V, A57G, K76N, T95V
VL: B1 VL
notes: Fab; also called P1AE4140
In the test with Hu N(A2-B2)A-avi-His, B8 came in with a Kd of 7.62 nM.

B9: CD28(SA)_variant_12 (antibody, human IgG1, kappa, L234A L235A)
heavy: not shown
light: DIQMTQSPSSLSASVGDRVTITCRASQNIYVWLNWYQQKPGKAPKLLIYKASNLYSGVPSRFSGSRSGTDFTLTISSLQPEDFATYYCQQGQTYPYTFGQGTKLEIKRTVAAPSVFIFPPSDRKLKSGTASVVCLLNNFYPREAKVQWKVDNALQSGNSQESVTEQDSKDSTYSLSSTLTLSKADYEKHKVYACEVTHQGLSSPVTKSFNRGEC
chain: DKTHTCPPCPAPEAAGGPSVFLFPPKPKDTLMISRTPEVTCVVVDVSHEDPEVKFNWYVDGVEVHNAKTKPREEQYNSTYRVVSVLTVLHQDWLNGKEYKCKVSNKALGAPIEKTISKAKGQPREPQVCTLPPSRDELTKNQVSLSCAVKGFYPSDIAVEWESNGQPENNYKTTPPVLDSDGSFFLVSKLTVDKSRWQQGNVFSCSVMHEALHNRFTQKSLSLSP
notes: monovalent one-armed huIgG1 PG-LALA; from supernatant; also called P1AE3068
Regarding B9, the binding result in test [3] is given as “binds”.

B10: CD28(SA)_variant_30 (antibody, human IgG1, kappa, L234A L235A)
heavy: not shown
light: B9 light
chain: B9 chain
notes: monovalent one-armed huIgG1 PG-LALA; from supernatant; also called P1AE3086
B10: in test [4], the binding result was “binds”.

B11: CD28(SA)_variant_31 (antibody, human IgG1, kappa, L234A L235A)
heavy: not shown
light: not shown
chain: B9 chain
notes: monovalent one-armed huIgG1 PG-LALA; from supernatant; also called P1AE3087
In the case of B11, the binding result in test [4] is recorded as “binds”.

B12: CD28(SA)_variant_16 (antibody, human IgG1, kappa, L234A L235A)
heavy: not shown
light: not shown
chain: B9 chain
notes: monovalent one-armed huIgG1 PG-LALA; from supernatant; also called P1AE3072
On to B12, for which the binding result in test [3] was “binds”.

B13: CD28(SA)_variant_25 (antibody, human IgG1, kappa, L234A L235A)
heavy: not shown
light: not shown
chain: B9 chain
notes: monovalent one-armed huIgG1 PG-LALA; from supernatant; also called P1AE3081
B13: the binding result in test [4] was “binds”.

B14: CD28(SA)_variant_26 (antibody, human IgG1, kappa, L234A L235A)
heavy: not shown
light: not shown
chain: B9 chain
notes: monovalent one-armed huIgG1 PG-LALA; from supernatant; also called P1AE3082
B14: the binding result in test [4] is recorded as “binds”.

B15: CD28(SA)_variant_29 (antibody, human IgG1, kappa, L234A L235A)
heavy: not shown
light: not shown
chain: B9 chain
notes: monovalent one-armed huIgG1 PG-LALA; from supernatant; also called P1AE3085
Consider B15, for which, in test [4], the binding result was “binds”.

B16: CD28(SA)_variant_13 (antibody, human IgG1, kappa, L234A L235A)
heavy: not shown
light: not shown
chain: B9 chain
notes: monovalent one-armed huIgG1 PG-LALA; from supernatant; also called P1AE3069
Turning to B16, the binding result in test [3] is listed as “binds”.

B17: CD28(SA)_variant_27 (antibody, human IgG1, kappa, L234A L235A)
heavy: not shown
light: not shown
chain: B9 chain
notes: monovalent one-armed huIgG1 PG-LALA; from supernatant; also called P1AE3083
As to B17, in test [4], the binding result is reported as “binds”.

B18: CD28(SA)_variant_17 (antibody, human IgG1, kappa, L234A L235A)
heavy: not shown
light: not shown
chain: B9 chain
notes: monovalent one-armed huIgG1 PG-LALA; from supernatant; also called P1AE3073
In the case of B18, in test [3], the binding result is listed as “binds”.

B19: CD28(SA)_variant_19 (antibody, human IgG1, kappa, L234A L235A)
heavy: not shown
light: not shown
chain: B9 chain
notes: monovalent one-armed huIgG1 PG-LALA; from supernatant; also called P1AE3075
For the molecule B19, the binding result in test [3] is reported as “binds”.

B20: CD28(SA)_variant_15 (antibody, human IgG1, kappa, L234A L235A)
heavy: not shown
light: not shown
chain: B9 chain
notes: monovalent one-armed huIgG1 PG-LALA; from supernatant; also called P1AE3071
On to B20, for which, in test [3], the binding result is given as “binds”.

B21: CEA (A5H1EL1D)-CD28 (SA_Variant 29) 1+1 format (Molecule 11D) (bispecific antibody, human IgG1, kappa, L234A L235A)
heavy 1: EIVLTQSPATLSLSPGERATLSCRASSSVTYIHWYQQKPGQAPRSWIYATSNLASGIPARFSGSGSGTDFTLTISSLEPEDFAVYYCQHWSSKPPTFGQGTKLEIKSSASTKGPSVFPLAPSSKSTSGGTAALGCLVKDYFPEPVTVSWNSGALTSGVHTFPAVLQSSGLYSLSSVVTVPSSSLGTQTYICNVNHKPSNTKVDKKVEPKSCDKTHTCPPCPAPEAAGGPSVFLFPPKPKDTLMISRTPEVTCVVVDVSHEDPEVKFNWYVDGVEVHNAKTKPREEQYNSTYRVVSVLTVLHQDWLNGKEYKCKVSNKALGAPIEKTISKAKGQPREPQVCTLPPSRDELTKNQVSLSCAVKGFYPSDIAVEWESNGQPENNYKTTPPVLDSDGSFFLVSKLTVDKSRWQQGNVFSCSVMHEALHNHYTQKSLSLSP
light 1: EVQLLESGGGLVQPGGSLRLSCAASGFTFTDYYMNWVRQAPGKGLEWLGFIGNKANAYTTEYSASVKGRFTISRDKSKNTLYLQMNSLRAEDTATYYCTRDRGLRFYFDYWGQGTTVTVSSASVAAPSVFIFPPSDEQLKSGTASVVCLLNNFYPREAKVQWKVDNALQSGNSQESVTEQDSKDSTYSLSSTLTLSKADYEKHKVYACEVTHQGLSSPVTKSFNRGEC
heavy 2: not shown
light 2: not shown
notes: huIgG1 PG-LALA CrossFab; also called P1AE4776
In test [5], B21 gave a Kd of 1.2 nM, a koff of 0.000324 s⁻¹ and a kon of 271000 M⁻¹ s⁻¹.

B22: CEA (A5H1EL1D)-CD28 (SA_Variant 8) 1+1 format (Molecule 11B) (bispecific antibody, human IgG1, kappa, L234A L235A)
heavy 1: B21 heavy 1
light 1: B21 light 1
heavy 2: not shown
light 2: not shown
notes: huIgG1 PG-LALA CrossFab; also called P1AE4774
In test [5], B22 displayed an equilibrium dissociation constant (Kd) of 58 nM, a koff of 0.0098 s⁻¹ and a kon of 169000 M⁻¹ s⁻¹.

For orientation: koff means the first-order rate constant of dissociation. A high value points to a short-lived complex. Broadly, the Kd is the concentration at which binding is half-saturated. Read a low Kd as tighter binding. The kon is the rate constant with which the complex forms. A low value points to slow association.
